# Assay results as given in paper PMC2171992.
# How the values were obtained:
# [1] = target: muscle actin (UniProt P68135); assay: seeded actin assembly kinetics
# [2] = target: muscle actin (UniProt P68135); assay: apparent critical concentration for actin polymerization at steady state
Substance,Kd of capping (barbed end; fit with capping and monomer binding) [1] [µM],Kd of monomer binding (fit with capping and monomer binding) [1] [µM],k+2 of capping (barbed end; fit with capping and monomer binding) [1] [M⁻¹ s⁻¹],Kd [1] [µM],koff [1] [s⁻¹],Kd [2] [µM]
"Cap1 C-30, synthetic peptide corresponding to the Cap1 COOH-terminal 30 residues, 239–268 (from UniProt P28495 239-268)",1.71,2.86,2100,–,–,–
Cap1Δ(239–268)/Cap2 (from UniProt P28495 1-238; P13517 1-287) (complex),–,–,–,10.3,0.00233,> 50
